Results reported in patent publication US20120100139A1 (APTEVO RESEARCH AND DEVELOPMENT, published 2012).

T1: CD86-mIgG (Ancell, Inc) (UniProt P42081 24-247, limits assumed)
T1 construct: Bought reagent
T1 sequence (looked up): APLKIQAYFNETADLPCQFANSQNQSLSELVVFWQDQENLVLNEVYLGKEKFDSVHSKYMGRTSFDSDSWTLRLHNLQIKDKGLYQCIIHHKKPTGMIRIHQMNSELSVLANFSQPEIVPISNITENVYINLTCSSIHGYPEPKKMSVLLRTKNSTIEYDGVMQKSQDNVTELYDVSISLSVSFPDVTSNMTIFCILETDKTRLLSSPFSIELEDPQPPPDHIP

T2: Murine CD86-mIgG (R&D Systems, Inc) (murine, UniProt P42082 24-244, limits assumed)
T2 construct: also called muCD86
T2 sequence (looked up): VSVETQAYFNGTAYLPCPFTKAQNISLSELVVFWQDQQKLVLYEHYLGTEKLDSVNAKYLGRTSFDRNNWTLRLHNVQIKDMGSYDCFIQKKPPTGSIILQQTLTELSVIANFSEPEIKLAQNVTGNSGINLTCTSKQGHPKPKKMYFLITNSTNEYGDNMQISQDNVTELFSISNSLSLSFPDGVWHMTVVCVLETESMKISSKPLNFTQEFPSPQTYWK

B1: IL10::FUN1-21 xceptor (Fc fusion)
chain: SPGQGTQSENSCTHFPGNLPNMLRDLRDAFSRVKTFFQMKDQLDNLLLKESLLEDFKGYLGCQALSEMIQFYLEEVMPQAENQDPDIKAHVNSLGENLKTLRLRLRRCHRFLPCENKSKAVEQVKNAFNKLQEKGIYKAMSEFDIFINYIEAYITMKIRNLEPKSSDKTHTCPPCPAPEAAGAPSVFLFPPKPKDTLMISRTPEVTCVVVDVSHEDPEVKFNWYVDGVEVHNAKTKPREEQYNSTYRVVSVLTVLHQDWLNGKAYACAVSNKALPAPIEKTISKAKGQPREPQVYTLPPSRDELTKNQVSLTCLVKGFYPSDIAVEWESNGQPENNYKTTPPVLDSDGSFFLYSKLTVDKSRWQQGNVFSCSVMHEALHNHYTQKSLSLSPGNSLFNQEVQIPLTESYSPNSQVQLVQSGAEVKKPGASVKVSCKASGYTFTDYNMNWVRQAPGQGLEWMGNIDPYYGGTSYNQKFKGRVTMTRDTSISTAYMELSRLRSDDTAVYYCARWDYRYDDGRAYYVMDFWGQGTTVTVSSGGGGSGGGGSGGGGSGGGGSDIVMTQSPDSLAVSLGERATINCKSSQSVLYSSNQKNYLAWYQQKPGQPPKLLIYWASTRESGVPDRFSGSGSGTDFTLTISSLQAEDVAVYYCHQYLYSWTFGQGTKLEIKR
B2: (monoIL10-A2 hinge::FUN1-21)-75 xceptor (Fc fusion)
chain: SPGQGTQSENSCTHFPGNLPNMLRDLRDAFSRVKTFFQMKDQLDNLLLKESLLEDFKGYLGCQALSEMIQFYLEEVMPQAENQDPDIKAHVNSLGENLKTLRLRLRRCHRFLPCENGGGSGGKSKAVEQVKNAFNKLQEKGIYKAMSEFDIFINYIEAYITMKIRNLEPPPPPCPPCPAPEAAGAPSVFLFPPKPKDTLMISRTPEVTCVVVDVSHEDPEVKFNWYVDGVEVHNAKTKPREEQYNSTYRVVSVLTVLHQDWLNGKAYACAVSNKALPAPIEKTISKAKGQPREPQVYTLPPSRDELTKNQVSLTCLVKGFYPSDIAVEWESNGQPENNYKTTPPVLDSDGSFFLYSKLTVDKSRWQQGNVFSCSVMHEALHNHYTQKSLSLSPGQRHNNSSLNTGTQMAGHSPNSQVQLVQSGAEVKKPGASVKVSCKASGYTFTDYNMNWVRQAPGQGLEWMGNIDPYYGGTSYNQKFKGRVTMTRDTSISTAYMELSRLRSDDTAVYYCARWDYRYDDGRAYYVMDFWGQGTTVTVSSGGGGSGGGGSGGGGSGGGGSDIVMTQSPDSLAVSLGERATINCKSSQSVLYSSNQKNYLAWYQQKPGQPPKLLIYWASTRESGVPDRFSGSGSGTDFTLTISSLQAEDVAVYYCHQYLYSWTFGQGTKLEIKR
notes: also called monoIL10::FUN1-21
B3: (IL10 I87A::FUN1-21)-75 xceptor (Fc fusion)
chain: SPGQGTQSENSCTHFPGNLPNMLRDLRDAFSRVKTFFQMKDQLDNLLLKESLLEDFKGYLGCQALSEMIQFYLEEVMPQAENQDPDAKAHVNSLGENLKTLRLRLRRCHRFLPCENKSKAVEQVKNAFNKLQEKGIYKAMSEFDIFINYIEAYITMKIRNLEPKSSDKTHTCPPCPAPEAAGAPSVFLFPPKPKDTLMISRTPEVTCVVVDVSHEDPEVKFNWYVDGVEVHNAKTKPREEQYNSTYRVVSVLTVLHQDWLNGKAYACAVSNKALPAPIEKTISKAKGQPREPQVYTLPPSRDELTKNQVSLTCLVKGFYPSDIAVEWESNGQPENNYKTTPPVLDSDGSFFLYSKLTVDKSRWQQGNVFSCSVMHEALHNHYTQKSLSLSPGQRHNNSSLNTGTQMAGHSPNSQVQLVQSGAEVKKPGASVKVSCKASGYTFTDYNMNWVRQAPGQGLEWMGNIDPYYGGTSYNQKFKGRVTMTRDTSISTAYMELSRLRSDDTAVYYCARWDYRYDDGRAYYVMDFWGQGTTVTVSSGGGGSGGGGSGGGGSGGGGSDIVMTQSPDSLAVSLGERATINCKSSQSVLYSSNQKNYLAWYQQKPGQPPKLLIYWASTRESGVPDRFSGSGSGTDFTLTISSLQAEDVAVYYCHQYLYSWTFGQGTKLEIKR
B4: GL1 SMIP (Fc fusion)
chain: EVQLVESAGGLVQPGRSLKLSCAASGFTFSDYYMAWVRQAPTKGLEWVATISHDGSSTYYRDSVKGRFTISRDNAKTILYLQMDSLRSEDTATYFCARQNIMDYWGQGVMVTVSSGGGGSGGGGSGGGGSGGGGSDIVMTQTPSSQAVSAGEKVTMSCKSSQSLLYSRDQSNYLAWYQQKPGQSPKLLIYLASTRESGVPDRFIGSGSGTDFTLTISSVQAEDLADYYCQQHYNYPLTFGSGTKLEIKLEPKSSDKTHTCPPCPAPEAAGAPSVFLFPPKPKDTLMISRTPEVTCVVVDVSHEDPEVKFNWYVDGVEVHNAKTKPREEQYNSTYRVVSVLTVLHQDWLNGKAYACAVSNKALPAPIEKTISKAKGQPREPQVYTLPPSRDELTKNQVSLTCLVKGFYPSDIAVEWESNGQPENNYKTTPPVLDSDGSFFLYSKLTVDKSRWQQGNVFSCSVMHEALHNHYTQKSLSLSPG
notes: SMIP containing a single-chain GL1 antibody fragment
B5: GL1 PIMS (Fc fusion)
chain: EPKSSDKTHTCPPCPAPEAAGAPSVFLFPPKPKDTLMISRTPEVTCVVVDVSHEDPEVKFNWYVDGVEVHNAKTKPREEQYNSTYRVVSVLTVLHQDWLNGKAYACAVSNKALPAPIEKTISKAKGQPREPQVYTLPPSRDELTKNQVSLTCLVKGFYPSDIAVEWESNGQPENNYKTTPPVLDSDGSFFLYSKLTVDKSRWQQGNVFSCSVMHEALHNHYTQKSLSLSPGNSLFNQEVQIPLTESYSPNSEVQLVESAGGLVQPGRSLKLSCAASGFTFSDYYMAWVRQAPTKGLEWVATISHDGSSTYYRDSVKGRFTISRDNAKTILYLQMDSLRSEDTATYFCARQNIMDYWGQGVMVTVSSGGGGSGGGGSGGGGSGGGGSDIVMTQTPSSQAVSAGEKVTMSCKSSQSLLYSRDQSNYLAWYQQKPGQSPKLLIYLASTRESGVPDRFIGSGSGTDFTLTISSVQAEDLADYYCQQHYNYPLTFGSGTKLEIK
B6: GL1::IL10 xceptor (Fc fusion)
chain: EVQLVESAGGLVQPGRSLKLSCAASGFTFSDYYMAWVRQAPTKGLEWVATISHDGSSTYYRDSVKGRFTISRDNAKTILYLQMDSLRSEDTATYFCARQNIMDYWGQGVMVTVSSGGGGSGGGGSGGGGSGGGGSDIVMTQTPSSQAVSAGEKVTMSCKSSQSLLYSRDQSNYLAWYQQKPGQSPKLLIYLASTRESGVPDRFIGSGSGTDFTLTISSVQAEDLADYYCQQHYNYPLTFGSGTKLEIKLEPKSSDKTHTCPPCPAPEAAGAPSVFLFPPKPKDTLMISRTPEVTCVVVDVSHEDPEVKFNWYVDGVEVHNAKTKPREEQYNSTYRVVSVLTVLHQDWLNGKAYACAVSNKALPAPIEKTISKAKGQPREPQVYTLPPSRDELTKNQVSLTCLVKGFYPSDIAVEWESNGQPENNYKTTPPVLDSDGSFFLYSKLTVDKSRWQQGNVFSCSVMHEALHNHYTQKSLSLSPGNSLFNQEVQIPLTESYSPNSSPGQGTQSENSCTHFPGNLPNMLRDLRDAFSRVKTFFQMKDQLDNLLLKESLLEDFKGYLGCQALSEMIQFYLEEVMPQAENQDPDIKAHVNSLGENLKTLRLRLRRCHRFLPCENKSKAVEQVKNAFNKLQEKGIYKAMSEFDIFINYIEAYMTMKIRN
B7: GL1 mAb (parent rat anti-murine CD86 monoclonal antibody) (antibody, V domains shown)
VH: EVQLVESAGGLVQPGRSLKLSCAASGFTFSDYYMAWVRQAPTKGLEWVATISHDGSSTYYRDSVKGRFTISRDNAKTILYLQMDSLRSEDTATYFCARQNIMDYWGQGVMVTVSS
VL: DIVMTQTPSSQAVSAGEKVTMSCKSSQSLLYSRDQSNYLAWYQQKPGQSPKLLIYLASTRESGVPDRFIGSGSGTDFTLTISSVQAEDLADYYCQQHYNYPLTFGSGTKLEIK
notes: also called GL1 antibody

Target: T1, CD86-mIgG (Ancell, Inc)
Assay: SPR (BIAcore T100), CD86-mIgG immobilized on CM5; second site
Procedure: (§1) SPR measurements were performed on a BIAcore™ T100 SPR (Pharmacia Biotech AB, Uppsala) using HBS-EP+ (GE Healthcare) as a running buffer. […] CTLA4-containing constructs were injected for 150 seconds, at a flow rate of 10 μl/min, in a series of concentrations from 4 nM to 10 μM. Dissociation was monitored for 600 seconds, and the surface was either regenerated by injecting 50 mM sodium citrate, 500 mM sodium chloride, pH 5.0, for 60 seconds (wild type CTLA4) or 10 mM glycine, pH 1.7 (L104E A29Y CTLA4). […] Data were analyzed using BiaEvaluation for the T100 software (version 2.0.1, GE Healthcare).
(§2) SPR measurements were performed as listed above, with the following exceptions: HBS-P+ (GE Healthcare) was used as a running buffer; dissociation was monitored for 1200 seconds; and the surface was regenerated by injecting 10 mM glycine, pH 1.7, for 60 seconds.

Second Site ka | Second Site kd | Binder
0.0064 s⁻¹ | 0.0387 s⁻¹ | B1
0.011 s⁻¹ | 0.0111 s⁻¹ | B2
0.0198 s⁻¹ | 0.0579 s⁻¹ | B3

Target: T1, CD86-mIgG (Ancell, Inc)
Assay: SPR (BIAcore T100), CD86-mIgG immobilized on CM5; first site
Procedure: as §1, §2

koff | kon | Binder
0.000128 s⁻¹ | 158000 M⁻¹ s⁻¹ | B1
0.000344 s⁻¹ | 12600 M⁻¹ s⁻¹ | B2
0.000433 s⁻¹ | 40700 M⁻¹ s⁻¹ | B3

Target: T1, CD86-mIgG (Ancell, Inc)
Assay: SPR (BIAcore T100), CD86-mIgG immobilized on CM5; steady-state equilibrium fit
Procedure: as §1, §2

Kd | Binder
98.6 nM | B1
178 nM | B2
88.5 nM | B3

Target: T2, Murine CD86-mIgG (R&D Systems, Inc)
Assay: SPR (BIAcore T100), murine CD86-mIgG immobilized on CM5; steady-state equilibrium fit
Procedure: (§3) SPR measurements were performed on a BIAcore™ T100 SPR (Pharmacia Biotech AB, Uppsala) using HBS-EP+ (GE Healthcare) as a running buffer. Murine CD86-mIgG (25 μg/mL in 10 mM sodium acetate, pH 4.0, R&D Systems, Inc) was directly immobilized onto a CM5 chip using standard amine coupling chemistry (Biacore Amine Coupling Kit, GE Healthcare), with final immobilization levels of 150, 493, and 746 Ru. CTLA4-containing constructs were injected for 150 seconds, at a flow rate of 10 μl/min, in a series of concentrations from 4 nM to 8 μM. Dissociation was monitored for 600 seconds (CTLA4 constructs) or 1200 seconds (GL1 constructs), and the surface was regenerated by injecting 10 mM glycine, pH 1.7, for 60 seconds. […] Data were analyzed using BiaEvaluation for the T100 software (version 2.0.1, GE Healthcare).

Kd | Binder
26.2 nM | B4
78.3 nM | B5
86.4 nM | B6
37.7 nM | B7

Target: T2, Murine CD86-mIgG (R&D Systems, Inc)
Assay: SPR (BIAcore T100), murine CD86-mIgG immobilized on CM5; bivalent analyte model, second site
Procedure: as §3

Second Site ka | Second Site kd | Binder
0.00964 s⁻¹ | 0.0185 s⁻¹ | B4
0.0431 s⁻¹ | 0.0977 s⁻¹ | B5
0.00943 s⁻¹ | 0.0182 s⁻¹ | B6
0.00879 s⁻¹ | 0.00635 s⁻¹ | B7

Target: T2, Murine CD86-mIgG (R&D Systems, Inc)
Assay: SPR (BIAcore T100), murine CD86-mIgG immobilized on CM5; bivalent analyte model, first site
Procedure: as §3

koff | kon | Binder
6.2e-05 s⁻¹ | 118000 M⁻¹ s⁻¹ | B4
0.000125 s⁻¹ | 177000 M⁻¹ s⁻¹ | B5
0.00019 s⁻¹ | 219000 M⁻¹ s⁻¹ | B6
0.000106 s⁻¹ | 78900 M⁻¹ s⁻¹ | B7
